From patent US20220289796A1
pKd: −log10 of the molar value. Several values for one entry are separate records, joined by “and”; a condition that tells them apart may be missing. Identical values can stand only once. Like-named read-outs stand apart in the source and are kept apart here.

What was measured:
[1] = target: DENV2 sE WT, displayed on EXPI293F cells (Dengue virus 2 strain 16681); experiment: flow cytometry, EXPI293F surface display, RT (~23 C)
[2] = target: DENV2 sE Cm1, displayed on EXPI293F cells (Dengue virus 2 strain 16681); experiment: as above
[3] = target: DENV2 sE IntFc6, displayed on EXPI293F cells (Dengue virus 2 strain 16681); experiment: as above
[4] = target: DENV2 sE Mnmer1, displayed on EXPI293F cells (Dengue virus 2 strain 16681); experiment: as above
[5] = target: DENV2 sE SHP2, displayed on EXPI293F cells (Dengue virus 2 strain 16681); experiment: as above
[6] = target: DENV2 sE SHP1, displayed on EXPI293F cells (Dengue virus 2 strain 16681); experiment: as above
[7] = target: DENV2 sE Mnmer2, displayed on EXPI293F cells (Dengue virus 2 strain 16681); experiment: as above
[8] = target: DENV2 sE PM4, displayed on EXPI293F cells (Dengue virus 2 strain 16681); experiment: as above
[9] = target: DENV2 sE PM2, displayed on EXPI293F cells (Dengue virus 2 strain 16681); experiment: as above
[10] = target: DENV2 sE HCat3, displayed on EXPI293F cells (Dengue virus 2 strain 16681); experiment: as above
[11] = target: DENV2 sE Cm2, displayed on EXPI293F cells (Dengue virus 2 strain 16681); experiment: as above
[12] = target: DENV2 sE IntFc8, displayed on EXPI293F cells (Dengue virus 2 strain 16681); experiment: as above
[13] = target: DENV2 sE IntFc2, displayed on EXPI293F cells (Dengue virus 2 strain 16681); experiment: as above
[14] = target: DENV2 sE UndPk6, displayed on EXPI293F cells (Dengue virus 2 strain 16681); experiment: as above
[15] = target: DENV2 sE WT, displayed on EXPI293F cells (Dengue virus 2 strain 16681); experiment: flow cytometry, EXPI293F surface display, 40 C
[16] = target: DENV2 sE Cm1, displayed on EXPI293F cells (Dengue virus 2 strain 16681); experiment: flow cytometry, EXPI293F surface display, 40 C
[17] = target: DENV2 sE IntFc6, displayed on EXPI293F cells (Dengue virus 2 strain 16681); experiment: flow cytometry, EXPI293F surface display, 40 C
[18] = target: DENV2 sE Mnmer1, displayed on EXPI293F cells (Dengue virus 2 strain 16681); experiment: flow cytometry, EXPI293F surface display, 40 C
[19] = target: DENV2 sE SHP2, displayed on EXPI293F cells (Dengue virus 2 strain 16681); experiment: flow cytometry, EXPI293F surface display, 40 C
[20] = target: DENV2 sE SHP1, displayed on EXPI293F cells (Dengue virus 2 strain 16681); experiment: flow cytometry, EXPI293F surface display, 40 C
[21] = target: DENV2 sE Mnmer2, displayed on EXPI293F cells (Dengue virus 2 strain 16681); experiment: flow cytometry, EXPI293F surface display, 40 C
[22] = target: DENV2 sE PM2, displayed on EXPI293F cells (Dengue virus 2 strain 16681); experiment: flow cytometry, EXPI293F surface display, 40 C
[23] = target: DENV2 sE HCat3, displayed on EXPI293F cells (Dengue virus 2 strain 16681); experiment: flow cytometry, EXPI293F surface display, 40 C
[24] = target: DENV2 sE Cm2, displayed on EXPI293F cells (Dengue virus 2 strain 16681); experiment: flow cytometry, EXPI293F surface display, 40 C
[25] = target: DENV2 sE IntFc8, displayed on EXPI293F cells (Dengue virus 2 strain 16681); experiment: flow cytometry, EXPI293F surface display, 40 C
[26] = target: DENV2 sE IntFc2, displayed on EXPI293F cells (Dengue virus 2 strain 16681); experiment: flow cytometry, EXPI293F surface display, 40 C
[27] = target: DENV2 sE UndPk6, displayed on EXPI293F cells (Dengue virus 2 strain 16681); experiment: flow cytometry, EXPI293F surface display, 40 C
[28] = target: DENV2 sE SHP2, displayed on EXPI293F cells (Dengue virus 2 strain 16681); experiment: flow cytometry, displayed sE, 40 C
[29] = target: DENV2 sE SHP1, displayed on EXPI293F cells (Dengue virus 2 strain 16681); experiment: flow cytometry, displayed sE, 40 C
[30] = target: DENV2 sE PM4, displayed on EXPI293F cells (Dengue virus 2 strain 16681); experiment: flow cytometry, displayed sE, 40 C
[31] = target: DENV2 sE PM2, displayed on EXPI293F cells (Dengue virus 2 strain 16681); experiment: flow cytometry, displayed sE, 40 C
[32] = target: DENV2 sE HCat3, displayed on EXPI293F cells (Dengue virus 2 strain 16681); experiment: flow cytometry, displayed sE, 40 C
[33] = target: DENV2 sE IntFc8, displayed on EXPI293F cells (Dengue virus 2 strain 16681); experiment: flow cytometry, displayed sE, 40 C
[34] = target: DENV2 sE IntFc2, displayed on EXPI293F cells (Dengue virus 2 strain 16681); experiment: flow cytometry, displayed sE, 40 C
[35] = target: DENV2 sE UndPk6, displayed on EXPI293F cells (Dengue virus 2 strain 16681); experiment: flow cytometry, displayed sE, 40 C
[36] = target: DENV2 sE PM4, displayed on EXPI293F cells (Dengue virus 2 strain 16681); experiment: flow cytometry, EXPI293F surface display, 40 C
[37] = target: DENV2 sE WT (Dengue virus 2 strain 16681) (UniProt P29990); experiment: nanoDSF Van't Hoff, homodimer, 37 C; design: TΔS°bind: unit not given here
[38] = nanoDSF melting, homodimer dissociation, 4.0 µM

| Substance | Fluorescence Ratio (Fr, Var/WT) [1] | Fluorescence Ratio (Fr, Var/WT) [2] | Fluorescence Ratio (Fr, Var/WT) [3] | Fluorescence Ratio (Fr, Var/WT) [4] | Fluorescence Ratio (Fr, Var/WT) [5] | Fluorescence Ratio (Fr, Var/WT) [6] | Fluorescence Ratio (Fr, Var/WT) [7] | Fluorescence Ratio (Fr, Var/WT) [8] | Fluorescence Ratio (Fr, Var/WT) [9] | Fluorescence Ratio (Fr, Var/WT) [10] | Fluorescence Ratio (Fr, Var/WT) [11] | Fluorescence Ratio (Fr, Var/WT) [12] | Fluorescence Ratio (Fr, Var/WT) [13] | Fluorescence Ratio (Fr, Var/WT) [14] | Fluorescence Ratio (Fr, Var/WT) [15] | Fluorescence Ratio (Fr, Var/WT) [17] | Fluorescence Ratio (Fr, Var/WT) [18] | Fluorescence Ratio (Fr, Var/WT) [19] | Fluorescence Ratio (Fr, Var/WT) [20] | Fluorescence Ratio (Fr, Var/WT) [21] | further results |
| --- | --- | --- | --- | --- | --- | --- | --- | --- | --- | --- | --- | --- | --- | --- | --- | --- | --- | --- | --- | --- | --- |
| 2D22 (antibody) | 1 | 0.8 | 1 | 0.5 | 2.4 | 3 | 2.8 | 3 | 2.5 | 1.6 | 1.9 | 2.5 | 1.3 | 2.7 | 1 | 0 | 0 | 3.1 | 4.4 | 0.8 | Fluorescence Ratio (Fr, Var/WT) [16]: 1.6; Fluorescence Ratio (Fr, Var/WT) [22]: 2.8; Fluorescence Ratio (Fr, Var/WT) [23]: 2.8; Fluorescence Ratio (Fr, Var/WT) [24]: 4.4; Fluorescence Ratio (Fr, Var/WT) [25]: 4.4; Fluorescence Ratio (Fr, Var/WT) [26]: 2.5; Fluorescence Ratio (Fr, Var/WT) [27]: 4.9; Fr (geometric mean fluorescence intensity ratio, variant/WT) [28]: > 2 fold; Fr (geometric mean fluorescence intensity ratio, variant/WT) [29]: > 2 fold; Fr (geometric mean fluorescence intensity ratio, variant/WT) [30]: > 2 fold; Fr (geometric mean fluorescence intensity ratio, variant/WT) [31]: > 2 fold; Fr (geometric mean fluorescence intensity ratio, variant/WT) [32]: > 2 fold; Fr (geometric mean fluorescence intensity ratio, variant/WT) [33]: > 2 fold; Fr (geometric mean fluorescence intensity ratio, variant/WT) [34]: > 2 fold; Fr (geometric mean fluorescence intensity ratio, variant/WT) [35]: > 2 fold |
| 3H5 (antibody) | 1 | 0.5 | 0.6 | 0.3 | 0.6 | 0.7 | 0.8 | 0.8 | 0.7 | 0.7 | 0.4 | 0.5 | 0.8 | 0.8 | 1 | 0 | 0 | 0.5 | 0.5 | 0.8 | Fluorescence Ratio (Fr, Var/WT) [16]: 0.6; Fluorescence Ratio (Fr, Var/WT) [36]: 0.4; Fluorescence Ratio (Fr, Var/WT) [22]: 0.5; Fluorescence Ratio (Fr, Var/WT) [23]: 0.6; Fluorescence Ratio (Fr, Var/WT) [24]: 0.6; Fluorescence Ratio (Fr, Var/WT) [25]: 0.4; Fluorescence Ratio (Fr, Var/WT) [26]: 0.6; Fluorescence Ratio (Fr, Var/WT) [27]: 0.4 |
| EDE1 C10 (antibody) |  |  |  |  |  |  |  |  |  |  |  |  |  |  | 1 | 0 | 0 | 3.8 | 5.6 | 0.1 | Fluorescence Ratio (Fr, Var/WT) [22]: 3.7; Fluorescence Ratio (Fr, Var/WT) [23]: 3; Fluorescence Ratio (Fr, Var/WT) [24]: 3.8; Fluorescence Ratio (Fr, Var/WT) [25]: 5.9; Fluorescence Ratio (Fr, Var/WT) [26]: 3.4; Fluorescence Ratio (Fr, Var/WT) [27]: 4.1; Fr (geometric mean fluorescence intensity ratio, variant/WT) [28]: > 2 fold; Fr (geometric mean fluorescence intensity ratio, variant/WT) [29]: > 2 fold; Fr (geometric mean fluorescence intensity ratio, variant/WT) [30]: > 2 fold; Fr (geometric mean fluorescence intensity ratio, variant/WT) [31]: > 2 fold; Fr (geometric mean fluorescence intensity ratio, variant/WT) [32]: > 2 fold; Fr (geometric mean fluorescence intensity ratio, variant/WT) [33]: > 2 fold; Fr (geometric mean fluorescence intensity ratio, variant/WT) [34]: > 2 fold; Fr (geometric mean fluorescence intensity ratio, variant/WT) [35]: > 2 fold |
| EDE1 C8 (antibody) | 1 | 0.9 | 1.3 | 0.7 | 2.3 | 2.9 | 2.7 | 3.2 | 2.4 | 1.9 | 1.7 | 3.3 | 1.3 | 2.3 |  |  |  |  |  |  |  |
| DENV2 sE WT (from UniProt P29990 281-677) |  |  |  |  |  |  |  |  |  |  |  |  |  |  |  |  |  |  |  |  | pKd [37]: 4.89; TΔS°bind [37]: -67.1; ΔG°bind [37]: -6.9 kcal/mol; ΔH°bind [37]: -74.1 kcal/mol |
| DENV2 sE WT |  |  |  |  |  |  |  |  |  |  |  |  |  |  |  |  |  |  |  |  | Tm^1 (Dimer Dissociation): 35.9 ° C. and 34.2 ° C. and 32.1 ° C. |
| 1C19 (antibody) | 1 | 0.9 | 0.8 | 0.2 | 1.2 | 1.3 | 0.8 | 2.1 | 1.7 | 1.5 | 0.6 | 2 | 1.4 | 2.4 | 1 | 0 | 0 | 1.9 | 1.8 | 0.8 | Fluorescence Ratio (Fr, Var/WT) [16]: 3.2; Fluorescence Ratio (Fr, Var/WT) [36]: 3.1; Fluorescence Ratio (Fr, Var/WT) [22]: 2.5; Fluorescence Ratio (Fr, Var/WT) [23]: 2.5; Fluorescence Ratio (Fr, Var/WT) [24]: 1.6; Fluorescence Ratio (Fr, Var/WT) [25]: 3.5; Fluorescence Ratio (Fr, Var/WT) [26]: 2.5; Fluorescence Ratio (Fr, Var/WT) [27]: 2.9 |
| DENV3 sE WT |  |  |  |  |  |  |  |  |  |  |  |  |  |  |  |  |  |  |  |  | Tm^1 (Dimer Dissociation) [38]: < 15 ° C.; ΔTm^1 (Var-WT) [38]: 0 ° C. |
